From patent US20020065240A1 come the findings set out here.

This assay addresses VEGF mitogenic receptors. Nature of the assay: cell-based or functional assay.

“purified human VEGF165 (R&D Systems, expressed in Sf21 cells) (from UniProt P15692 27-191) (ligand)” had a half-maximal activity, HUVEC mitogenesis ([3H]thymidine incorporation) of 17 to 19 ng/mL.
